Test results from publication PMC3149346.
Values belong to the substance of their own block, whether it stands above or below them.

Experiments:
Experiment in all cases: AUC
[1] = target: LZ5 K309C/C335A mutant of the Nek2 leucine zipper (UniProt P51955)
[2] = target: Nek2 core leucine zipper construct LZ5 (residues 299-343) (UniProt P51955)
[3] = target: Nek2 leucine zipper construct LZ0 (residues 290-360) (UniProt P51955)

- stoichiometry N [1]: 2
Substance: LZ5 K309C/C335A mutant of the Nek2 leucine zipper (from UniProt P51955 299-343) (domain or fragment)

- stoichiometry N [2]: 2
Substance: Nek2 core leucine zipper construct LZ5 (residues 299-343) (from UniProt P51955 299-343) (domain or fragment)

- stoichiometry N [3]: 2
Substance: Nek2 leucine zipper construct LZ0 (residues 290-360) (from UniProt P51955 290-360) (domain or fragment)
